Measured values published in PMC3964903.

Biological target: calcium/calmodulin-dependent protein kinase II (CaMKII) (mouse (endogenous in hippocampal slices)) (UniProt P11798)
UniProt P11798, sequence (P11798 whole entry): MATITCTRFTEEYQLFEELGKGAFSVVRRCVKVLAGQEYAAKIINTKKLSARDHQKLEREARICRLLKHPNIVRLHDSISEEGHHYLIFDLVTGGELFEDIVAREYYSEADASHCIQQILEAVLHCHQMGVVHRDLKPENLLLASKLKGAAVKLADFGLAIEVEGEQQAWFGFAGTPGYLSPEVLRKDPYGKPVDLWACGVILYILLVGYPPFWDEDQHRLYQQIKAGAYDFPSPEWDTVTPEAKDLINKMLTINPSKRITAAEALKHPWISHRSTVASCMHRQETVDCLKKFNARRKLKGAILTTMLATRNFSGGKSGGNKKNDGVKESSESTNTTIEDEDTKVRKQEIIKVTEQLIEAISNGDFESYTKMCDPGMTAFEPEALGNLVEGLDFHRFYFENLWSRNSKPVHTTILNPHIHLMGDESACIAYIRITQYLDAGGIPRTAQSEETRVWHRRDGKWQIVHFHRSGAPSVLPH

NMDA receptor (NMDAR) (from UniProt P35438 19-938; Q01097 27-1482) (complex)
CaMKII relative activity (Cyclex CaMKII assay kit) after 10 min OGD with Tat-GluN2B, compared with control (relative to control): 0.97
amplitude of NMDAR-mediated i-LTP (NMDA fEPSPs) in hippocampal slices exposed to OGD for 10 min with Tat-GluN2B, compared with OGD alone (relative to OGD): 0.73
